Experimental findings from patent EP4725969A1 (Latticon (Suzhou) Biopharmaceuticals Co., Ltd., dated 2024) are described below.

One may read the Kd as the free concentration of one partner at which half of the binding sites on the other are occupied at equilibrium, for simple one-to-one binding. The koff is the rate constant with which the complex falls apart. By kon is commonly meant the second-order rate constant of association. The EC50 is the midpoint of the concentration-response curve. Higher therefore signals lower potency in that assay.

In experiment [1] the target is T1, recombinant human HER2 extracellular domain protein (human, UniProt P04626 23-652).
T1 construct: range 23-652; Range is printed for the immunogen/panning protein; also called ErbB2; recombinant HER2 protein
In words: BLI (ForteBio). For orientation: Biolayer interferometry detects binding as a change in optical thickness at a sensor tip.

Experiment [2] addresses T2, human HER2 expressed on tumor cells (human, UniProt P04626 23-1255).
T2 construct: whole, on cells; Cell line is named in each row's assay
In words: flow cytometry, BT474 cells. (In general: Flow cytometry measures light scatter and fluorescence of single cells or particles in a stream.)

Experiment [3] has as its target T2, human HER2 expressed on tumor cells. Kind of experiment: flow cytometry, RT-112 cells.
The target in experiment [4] is T1, recombinant human HER2 extracellular …. In words: BLI, Protein A capture.
The target in experiment [5] is T2, human HER2 expressed on tumor cells. In words: flow cytometry, BT474 cells, 10 µg/mL.
Experiment [6] deals with T1, recombinant human HER2 extracellular …. In words: BLI, Protein A capture. This is another data set of the same source.
Experiment [7] has the same target. Kind of experiment: BLI, Protein A capture. The source holds these as a separate data set.
The target of experiment [8] is T3, recombinant human HER4 extracellular domain (human, UniProt Q15303 26-651).
T3 construct: extracellular domain
T3 sequence (looked up): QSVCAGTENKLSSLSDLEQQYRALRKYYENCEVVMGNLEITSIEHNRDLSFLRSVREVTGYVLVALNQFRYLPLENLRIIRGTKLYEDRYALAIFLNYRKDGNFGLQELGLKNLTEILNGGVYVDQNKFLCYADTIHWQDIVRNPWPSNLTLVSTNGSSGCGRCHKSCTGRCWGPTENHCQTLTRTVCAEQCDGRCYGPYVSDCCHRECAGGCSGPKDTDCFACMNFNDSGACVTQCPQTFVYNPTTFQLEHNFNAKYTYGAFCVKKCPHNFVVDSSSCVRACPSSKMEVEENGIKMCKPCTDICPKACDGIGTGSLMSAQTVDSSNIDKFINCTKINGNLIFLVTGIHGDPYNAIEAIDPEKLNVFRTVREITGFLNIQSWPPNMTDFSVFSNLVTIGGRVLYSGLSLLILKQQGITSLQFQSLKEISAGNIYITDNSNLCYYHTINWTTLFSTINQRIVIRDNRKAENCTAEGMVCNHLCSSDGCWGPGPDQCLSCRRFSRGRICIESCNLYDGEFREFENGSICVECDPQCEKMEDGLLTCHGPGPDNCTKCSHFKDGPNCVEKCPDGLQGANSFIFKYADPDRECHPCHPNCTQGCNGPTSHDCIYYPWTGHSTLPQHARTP
In words: ELISA, coated HER4 ECD.

For experiment [9], the target named is T4, recombinant human HER3 extracellular domain (human, UniProt P21860 20-643).
T4 construct: extracellular domain
In words: ELISA, coated HER3 ECD.

Experiment [10] has as its target T5, recombinant human EGFR extracellular domain (human, UniProt P00533 25-645).
T5 construct: extracellular domain
In words: ELISA, coated EGFR ECD.

B1: Hu2117HK (Fc fusion)
scFv: EVQLVESGGGLVQPGGSLRLSCAASGFTYSSYGMSWVRQAPGKGLEWVASISGGGSYTKYPDSVKGRFTISRDNSKNTLYLQMNSLRAEDTAVYYCARDYAGFFDVWGQGTLVTVSSGGGGSGGGGSGGGGSDIQMTQSPSSLSASVGDRVTITCRSSQSLVHSNGNTYLHWYQQKPGKAPKLLIYKVSNRFSGVPSRFSGSGSGTDFTLTISSLQPEDFATYFCSQSTHVPYTFGQGTKVEIK
notes: Hu2117-H1 + Hu2117-K1; also called hu2117-H1K1; humanized single-chain antibody Hu2117HK; not shown: human IgG1 Fc
For B1, the Kd in experiment [1] was 178 nM; in experiment [4], 11.4 nM. The off-rate constant (koff) in experiment [1] stood at 0.00296 s⁻¹; in experiment [4], 0.00105 s⁻¹. Besides, the figures for the association rate constant (kon) in experiment [1] and in experiment [4] were 16600 M⁻¹ s⁻¹ and 91700 M⁻¹ s⁻¹, respectively. Besides, the results for the half-maximal effective concentration (EC50) in experiment [2] and in [3] were 0.107 µg/mL and 0.0593 µg/mL, respectively.

B2: Hu2117-HK310 (Fc fusion)
scFv: EVQLVESGGGLVQPGGSLRLSCAASGFTYSSYGMSWVRQAPGKGLEWVASISGGGNYAKYVDNVKGRFTISRDNSKNTLYLQMNSLRAEDTAVYYCARDYVGFFDVWGQGTLVTVSSGGGGSGGGGSGGGGSDIQMTQSPSSLSASVGDRVTITCRSSQSLVHSNRNTYLHWYQQKPGKAPKLLIYKVSNRFSGVPSRFSGSGSGTDFTLTISSLQPEDFATYFCSQSTHVPYTFGQGTKVEIK
notes: scFv-hIgG1 Fc; not shown: human IgG1 Fc
In the case of B2, the figures for the EC50 in experiment [2] and in experiment [3] were 0.103 µg/mL and 0.157 µg/mL, respectively.

B3: Hu2117-HK201 (Fc fusion)
scFv: EVQLVESGGGLVQPGGSLRLSCAASGFTYSSYGMSWVRQAPGKGLEWVASISGGGNYAKYVDSVKGRFTISRDNSKNTLYLQMNSLRAEDTAVYYCARDYAGFFDVWGQGTLVTVSSGGGGSGGGGSGGGGSDIQMTQSPSSLSASVGDRVTITCRSSQSLVHSNRNTYLHWYQQKPGKAPKLLIYKVSNRFSGVPSRFSGSGSGTDFTLTISSLQPEDFATYFCSQSTHVPYTFGQGTKVEIK
notes: as for B2
For the molecule B3, the binding result in experiment [5] is “binds”.

B4: Hu2117-HK309 (Fc fusion)
scFv: EVQLVESGGGLVQPGGSLRLSCAASGFTYSSYGMSWVRQAPGKGLEWVASISGGGNYAKYVDKVKGRFTISRDNSKNTLYLQMNSLRAEDTAVYYCARDYVGFFDVWGQGTLVTVSSGGGGSGGGGSGGGGSDIQMTQSPSSLSASVGDRVTITCRSSQSLVHSNRNTYLHWYQQKPGKAPKLLIYKVSNRFSGVPSRFSGSGSGTDFTLTISSLQPEDFATYFCSQSTHVPYTFGQGTKVEIK
notes: as for B2
For the molecule B4, the concentration for a half-maximal effect (EC50) was found to be 0.103 µg/mL in experiment [2] and 0.0956 µg/mL in experiment [3].

B5: Hu2117-HK304 (Fc fusion)
scFv: EVQLVESGGGLVQPGGSLRLSCAASGFTYSSYGMSWVRQAPGKGLEWVASISGGGNYAKYVPSVKGRFTISRDNSKNTLYLQMNSLRAEDTAVYYCARDYVGFFDVWGQGTLVTVSSGGGGSGGGGSGGGGSDIQMTQSPSSLSASVGDRVTITCRSSQSLVHSNRNTYLHWYQQKPGKAPKLLIYKVSNRFSGVPSRFSGSGSGTDFTLTISSLQPEDFATYFCSQSTHVPYTFGQGTKVEIK
notes: as for B2
Consider B5, for which the EC50 in experiment [2] was 0.0922 µg/mL; in experiment [3] it was 0.0622 µg/mL.

B6: mAb2126 (antibody, human IgG1, V domains shown)
VH: QIQLAQSGPELKKPGETVKISCKASGYTFTDYSMHWVKQAPGKYLKWMGWINTETGEPTYADDFKGRFAFSLETSANTAYLQINNLKNEDTATYFCVRVGRYDYAMDYWGQGTSVTVSS
VL: DIVMTQSHKFMSTSVGDRVSITCKASQDVYTAVAWYQQKPGQSPKLLINSASYRYTGVPDRFTGSGSGTDFTFTISSVQAEDLAVYYCQQHYSTPPTFGGGTKLEIK
notes: also called anti-HER2 chimeric antibody mAb2126
Turning to B6, the Kd came out at 1.44 nM in experiment [6] and 5.2 nM in experiment [7]. For the same molecule, the koff in experiment [6] was 9.67e-05 s⁻¹; in [7] it was 0.000502 s⁻¹. Besides, the kon was 67300 M⁻¹ s⁻¹ in [6] and 96600 M⁻¹ s⁻¹ in experiment [7]. Moreover, the binding result in experiment [8], in experiment [9] and in [10] was “no binding” in each case.

B7: mAb2128 (antibody, V domains shown)
VH: EVQLQQSGPELVKPGASVKIPCKASGYTFTDYNMDWVKQSHGKSLEWIGDINPNNGGTIYNQKFKGKATLTVDKSSSTAYMELRSLTSEDTAVYYCARYGSGYGGFAYWGQGTLVTVSS
VL: DIVLTQSPTTMAASPGEKITITCSASSSISSNYLHWYQQKPGFSPKLLIYRTSNLASGVPARFSGSGSGTSYSLTIGTMEAEDVATYYCQQGSSIPRTFGGGTKLEIK
notes: Chimeric human IgG1/Cκ
Take B7: in experiment [6], the Kd worked out at 3.44 nM, the off-rate constant (koff) came to 0.000949 s⁻¹ and the kon came to 276000 M⁻¹ s⁻¹. The binding result in experiment [8] is given as “no binding”. The binding result in experiment [9] is on record as “no binding”. For the same molecule, the binding result in experiment [10] is reported as “no binding”.

B8: mAb2117 (antibody, V domains shown)
VH: EVKIEESGGGLVKPGGSLKLSCAASGFTYSSYGMSWVRQTPEKRLEWVASISGGGSYTKYPDSVKGRFTISRDNAKNHLYLQMSSLRSEDTALYYCARDYAGFFDVWGAGTTVTVSS
VL: DVVLTQTPLSLPVSLGDQASISCRSSQSLVHSNGNTYLHWYLQKPGQSPKLLIYKVSNRFSGVPDRFSGSGSGTDFTLKISRVEAEDLGVYFCSQSTHVPYTFGGGTKLEIK
notes: also called anti-HER2 chimeric antibody mAb2117
As for B8, in [6], the Kd is 4.28 nM, the koff came to 0.00166 s⁻¹ and the kon was 388000 M⁻¹ s⁻¹. In addition, in experiment [8], the binding result was “no binding”. In addition, the binding result in experiment [9] is “no binding”. Moreover, the binding result in [10] is “no binding”.
